The source of these data is publication PMC8287952, “PARP1 and CHK1 coordinate PLK1 enzymatic activity during the DNA damage response to promote homologous recombination-mediated repair” (Nucleic Acids Research, 2021).

For the test, the target named is T1, HIS-PLK1 (UniProt P53350 1-603).
T1 construct: Polo-like kinase 1 (PLK1), HIS tagged, expressed in bacteria via pET28a; also called HIS tagged PLK1; source: bacterially produced (pET28a system)
The experiment in a line: pull-down; GST-CHK1 (insect cells) as bait, HIS-PLK1 (bacterial) as prey; 1 μg of each in NETN buffer (20 mM Tris–HCl pH 8.0, 0.15 M NaCl, 1 mM EDTA, 0.5% NP-40), 4°C overnight; glutathione-sepharose beads; immunoblotting. Particulars: both partners purified. (In western blotting, separated proteins are transferred to a membrane and probed.)

T1 sequence (P53350 whole entry): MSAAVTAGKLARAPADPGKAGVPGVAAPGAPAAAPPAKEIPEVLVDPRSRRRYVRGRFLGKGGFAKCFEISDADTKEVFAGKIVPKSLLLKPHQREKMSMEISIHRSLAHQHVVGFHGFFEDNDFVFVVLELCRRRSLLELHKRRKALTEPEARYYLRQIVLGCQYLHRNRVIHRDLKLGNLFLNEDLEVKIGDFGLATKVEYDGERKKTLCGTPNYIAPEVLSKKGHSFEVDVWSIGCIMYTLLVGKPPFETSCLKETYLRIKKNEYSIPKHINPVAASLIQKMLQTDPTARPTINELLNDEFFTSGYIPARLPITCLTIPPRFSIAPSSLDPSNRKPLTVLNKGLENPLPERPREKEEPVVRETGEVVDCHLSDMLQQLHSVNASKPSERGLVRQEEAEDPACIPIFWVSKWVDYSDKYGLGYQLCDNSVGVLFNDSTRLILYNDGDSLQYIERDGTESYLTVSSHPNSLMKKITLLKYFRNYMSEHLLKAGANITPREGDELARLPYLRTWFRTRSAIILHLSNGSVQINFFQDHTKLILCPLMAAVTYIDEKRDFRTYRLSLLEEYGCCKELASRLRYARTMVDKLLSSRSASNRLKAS

B1: Recombinant human active protein GST-CHK1 (enzyme, UniProt O14757 1-476, looked up)
chain: MAVPFVEDWDLVQTLGEGAYGEVQLAVNRVTEEAVAVKIVDMKRAVDCPENIKKEICINKMLNHENVVKFYGHRREGNIQYLFLEYCSGGELFDRIEPDIGMPEPDAQRFFHQLMAGVVYLHGIGITHRDIKPENLLLDERDNLKISDFGLATVFRYNNRERLLNKMCGTLPYVAPELLKRREFHAEPVDVWSCGIVLTAMLAGELPWDQPSDSCQEYSDWKEKKTYLNPWKKIDSAPLALLHKILVENPSARITIPDIKKDRWYNKPLKKGAKRPRVTSGGVSESPSGFSKHIQSNLDFSPVNSASSEENVKYSSSQPEPRTGLSLWDTSPSYIDKLVQGISFSQPTCPDHMLLNSQLLGTPGSSQNPWQRLVKRMTRFFTKLDADKSYQCLKETCEKLGYQWKKSCMNQVTISTTDRRNNKLIFKVNLLEMDDKILVDFRLSKGDGLEFKRHFLKIKGKLIDIVSSQKIWLPAT
notes: Human checkpoint kinase CHK1, recombinant active protein; source: bought: R&D Systems (1630-KS-010), produced in insect cells
On to B1, for which the binding result is listed as “binds”.
